{
  "source": "patent US20100234287A1",
  "about": "“Targeting Bacterial Suicide Pathways for the Development of Novel Antibiotics” (UNIVERSITY OF MEDICINE AND DENTISTRY OF NEW JERSEY, priority 2006, published 2010)",
  "key": {"wild type yeast cells": {"test_system": "wild type yeast cells", "assay_type": "cell-based"}, "MazF": {"target": "MazF (Escherichia coli, UniProt P0A850+P0AE70)", "method": "The reaction was carried out as described in the text. Fluorescence was measured at 635 nm with excitation at 550 nm.\nIn a pilot experiment, we synthesized a small amount of CBS-1 and performed the cleavage reaction with use of purified MazF. The MIase reaction was carried out as follows; 5 μl (5×) MazF buffer (50 mM Tris-HCl, pH 7.8), 10 μl distilled water and 5 μl of CBS-1 solution (2 pmol/μl) were mixed and the mixture was preincubated at 37° C. The reaction was started by adding different concentrations of MazF (5 μl) (see FIG. 5). The excitation and emission wavelengths used were 550 and 635 nm, respectively.\nMazF used in this reaction is fused to the trigger factor (a cold-shock molecular chaperone used for high expression of MazF)."}, "[1]": {"target": "T1, RelE, His-tagged at the C-terminal end (E. coli K12, UniProt P0C077 1-95)", "T1 construct": "not shown: C-terminal His tag from pET21", "T1 sequence (looked up)": "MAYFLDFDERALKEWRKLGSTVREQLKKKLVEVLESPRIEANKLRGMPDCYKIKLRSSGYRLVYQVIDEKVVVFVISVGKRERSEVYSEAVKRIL", "experiment": "Ni-NTA purification of the complex via the His-tagged toxin"}, "E. coli": {"test_system": "E. coli", "assay_type": "cell-based"}, "[2]": {"target": "T2, ChpBK, His-tagged at the C-terminal end (E. coli K12, UniProt P33647 1-116)", "T2 construct": "not shown: C-terminal His tag from pET21", "T2 sequence (looked up)": "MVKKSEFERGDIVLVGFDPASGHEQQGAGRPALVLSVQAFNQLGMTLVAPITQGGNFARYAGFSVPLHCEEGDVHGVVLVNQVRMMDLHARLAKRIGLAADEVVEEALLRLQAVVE", "experiment": "Ni-NTA purification of the complex via the His-tagged toxin"}, "lpp mRNA": {"test_system": "lpp mRNA", "assay_type": "cell-based, E. coli"}, "E. coli cells [3]": {"test_system": "E. coli cells", "assay_type": "cell-based", "conditions": "arabinose-inducible pBAD vector"}, "[4]": {"test_system": "translation initiation complex", "experiment": "Toeprinting assay on a translation initiation complex (mazG mRNA fragment, 70S ribosomes)", "assay_type": "biochemical, E. coli", "conditions": "only in the presence of ribosomes"}, "ompA and ompF mRNAs": {"test_system": "ompA and ompF mRNAs", "assay_type": "cell-based, E. coli", "conditions": "2-h induction of YoeB with arabinose"}, "[5]": {"target": "T3, MazF, His-tagged at the C-terminal end (E. coli K12, UniProt P0AE70 1-111)", "T3 construct": "not shown: C-terminal His tag from pET21", "T3 sequence (looked up)": "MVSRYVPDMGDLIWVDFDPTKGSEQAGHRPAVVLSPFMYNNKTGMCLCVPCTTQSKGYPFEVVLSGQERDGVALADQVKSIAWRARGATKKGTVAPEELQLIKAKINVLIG", "experiment": "Ni-NTA purification of the complex via the His-tagged toxin"}, "[6]": {"test_system": "cellular mRNAs (ompA, tufA, ompF) and polysomes", "experiment": "Northern blot and polysome pattern after Doc induction (pBAD, arabinose)", "method": "Northern blot analysis after Doc induction. The doe gene was induced with use of a pBAD vector by the addition of arabinose. At the times after induction indicated on top of the gels, total cellular RNAs were extracted and analyzed by Northern blot for ompA, tufA and ompF mRNAs.\nPolysome patterns of cells without (left panels) or with Doc induction (right panels) using cells harboring pBADdoc. Polysome patterns were analyzed as described in FIG. 11 with and without Doc induction by the addition of arabinose. Polysome patterns were analyzed in the presence (upper panels) or in the absence of hygromycin, an antibiotic that blocks translation elongation reaction."}, "[7]": {"target": "T4, YafQ with His6 tag at the carboxy terminus (E. coli K12, UniProt Q47149 1-92)", "T4 construct": "not shown: C-terminal His6 tag from the pET vector", "T4 sequence (looked up)": "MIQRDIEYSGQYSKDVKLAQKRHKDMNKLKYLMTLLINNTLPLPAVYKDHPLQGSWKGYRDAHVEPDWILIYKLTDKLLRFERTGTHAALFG", "experiment": "affinity chromatography, co-purification via His6-tagged YafQ"}, "E. coli cells [8]": {"test_system": "E. coli cells", "conditions": "MazF induction (Zhang et al., 2003b); cited from earlier work"}, "[9]": {"target": "T5, HipA, His-tagged at the C-terminal end (E. coli K12, UniProt P23874 1-440)", "T5 construct": "not shown: C-terminal His tag from pET21", "T5 sequence (looked up)": "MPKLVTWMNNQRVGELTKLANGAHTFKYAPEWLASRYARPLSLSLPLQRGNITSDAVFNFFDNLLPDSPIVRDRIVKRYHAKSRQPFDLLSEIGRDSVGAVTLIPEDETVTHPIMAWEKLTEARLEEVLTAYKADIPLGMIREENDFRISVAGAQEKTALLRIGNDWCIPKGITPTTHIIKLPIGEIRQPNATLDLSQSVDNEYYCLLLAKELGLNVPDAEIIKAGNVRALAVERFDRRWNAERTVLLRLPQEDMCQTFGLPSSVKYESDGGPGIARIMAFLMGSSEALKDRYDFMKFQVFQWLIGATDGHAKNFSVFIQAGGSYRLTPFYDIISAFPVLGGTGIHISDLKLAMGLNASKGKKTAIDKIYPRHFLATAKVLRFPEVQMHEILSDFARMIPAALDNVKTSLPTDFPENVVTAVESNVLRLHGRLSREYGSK", "experiment": "Ni-NTA purification of the complex via the His-tagged toxin"}, "YdcE": {"target": "T6, YdcE (B. subtilis, UniProt P96622 1-116)", "T6 construct": "also called MazF homologue from B. subtilis", "T6 sequence (looked up)": "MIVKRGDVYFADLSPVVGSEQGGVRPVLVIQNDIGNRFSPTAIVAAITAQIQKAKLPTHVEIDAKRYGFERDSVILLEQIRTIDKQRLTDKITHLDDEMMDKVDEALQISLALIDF", "experiment": "purification of the toxin-antitoxin complex"}},
  "note": "d = 2'-deoxy (DNA); r = 2'-OH (RNA)",
  "data": [
    {"molecule": "RelE: E. coli toxin, ribosome-associating factor that stimulates ribosomal endo-ribonuclease activity", "values": [
      {"measurement": "toxicity / growth inhibition in yeast", "setting": "wild type yeast cells", "result": "prokaryote-specific growth inhibitors"}
    ]},
    {"molecule": "dGdAdTdArUdAdCdAdTdAdTdG [CBS-1]", "values": [
      {"measurement": "function as substrate for MazF", "setting": "MazF; MazF fused to trigger factor, 37° C., pilot experiment", "result": "suitable and sensitive substrate"}
    ]},
    {"molecule": "dGdAdTdArUrArCdGdTdAdTdG (GATAUACGTATG; sugars from the 5' end d4 r3 d5, backbone not given here) [CBS-2]", "values": [
      {"measurement": "cleavage by MazF", "setting": "MazF; substrate not yet synthesized", "result": "not by MazF"}
    ]},
    {"molecule": "RelB (other, E. coli K12, UniProt P0C079 1-79, looked up, also called RelB antitoxin) MGSINLRIDDELKARSYAALEKMGVTPSEALRLMLEYIADNERLPFKQTLLSDEDAELVEIVKERLRNPKPVRVTLDEL", "values": [
      {"measurement": "binding result", "setting": "[1]", "result": "binds"}
    ]},
    {"molecule": "YafQ: E. coli toxin of the YafQ-DinJ TA system, sequence-specific MIase (protein, left off: small tags and cut ends) MIQRDIEYSGQYSKDVKLAQKRHKDMNKLKYLMTLLINNTLPLPAVYKDHPLQGSWKGYRDAHVEPDWILIYKLTDKLLRFERTGTHAALFG", "values": [
      {"measurement": "toxicity / growth inhibition in E. coli", "setting": "E. coli", "result": "growth inhibitor"},
      {"measurement": "toxicity / growth inhibition in yeast", "setting": "wild type yeast cells", "result": "growth inhibitor"}
    ]},
    {"molecule": "ChpBI (other, E. coli K12, UniProt P08365 1-83, looked up, also called ChpBI antitoxin) MRITIKRWGNSAGMVIPNIVMKELNLQPGQSVEAQVSNNQLILTPISRRYSLDELLAQCDMNAAELSEQDVWGKSTPAGDEIW", "values": [
      {"measurement": "binding result", "setting": "[2]", "result": "binds"}
    ]},
    {"molecule": "YoeB: E. coli toxin of the YoeB-YefM TA system, 50S ribosome associating protein (protein, left off: small tags and cut ends, E. coli toxin of the YoeB-YefM TA system, 50S ribosome associating protein) MKLIWSEESWDDYLYWQETDKRIVKKINELIKDTRRTPFEGKGKPEPLKHNLSGFWSRRITEEHRLVYAVTDDSLLIAACRYHY", "values": [
      {"measurement": "time after induction at which a substantial amount of full-length lpp mRNA is still present", "setting": "lpp mRNA", "result": "more than 1 h"},
      {"measurement": "time after induction until cellular protein synthesis is almost completely inhibited", "setting": "E. coli cells [3]", "result": "≤ 5", "unit": "min"},
      {"measurement": "shift of the toeprint band upstream of the normal toeprinting band", "setting": "[4]", "result": 11, "unit": "bases"},
      {"measurement": "toxicity / growth inhibition in yeast", "setting": "wild type yeast cells", "result": "not toxic"},
      {"measurement": "position of primer extension block downstream of the initiation codon, ompA mRNA", "setting": "ompA and ompF mRNAs", "result": 3, "unit": "bases"},
      {"measurement": "position of primer extension block downstream of the initiation codon, ompF mRNA", "setting": "ompA and ompF mRNAs", "result": 6, "unit": "bases"}
    ]},
    {"molecule": "MazE (other, E. coli K12, UniProt P0AE72 1-82, looked up, also called MazE antitoxin) MIHSSVKRWGNSPAVRIPATLMQALNLNIDDEVKIDLVDGKLIIEPVRKEPVFTLAELVNDITPENLHENIDWGEPKDKEVW", "values": [
      {"measurement": "binding result", "setting": "[5]", "result": "binds"}
    ]},
    {"molecule": "Doc: toxin of the Doc-Phd TA operon from phage P1 (protein, left off: small tags and cut ends) MRHISPEELIALHDANISRYGGLPGMSDPGRAEAIIGRVQARVAYEEITDLFEVSATYLVATARGHIFNDANKRTALNSALLFLRRNGVQVFDSPELADLTVGAATGEISVSSVADTLRRLYGSAE", "values": [
      {"measurement": "degradation of cellular mRNAs", "setting": "[6]; 120 min after induction", "result": "not degraded"},
      {"measurement": "polysome pattern", "setting": "[6]; after 2 h induction, without addition of hygromycin", "result": "did not change"}
    ]},
    {"molecule": "DinJ (other, E. coli K12, UniProt Q47150 1-86, looked up, Co-expressed with YafQ from a pET vector; the His6 tag was added only to YafQ; also called DinJ antitoxin) MAANAFVRARIDEDLKNQAADVLAGMGLTISDLVRITLTKVAREKALPFDLREPNQLTIQSIKNSEAGIDVHKAKDADDLFDKLGI", "values": [
      {"measurement": "binding result", "setting": "[7]", "result": "binds"}
    ]},
    {"molecule": "MazF: E. coli toxin, sequence-specific (ACA) endoribonuclease, mRNA interferase (protein, left off: small tags and cut ends) MVSRYVPDMGDLIWVDFDPTKGSEQAGHRPAVVLSPFMYNNKTGMCLCVPCTTQSKGYPFEVVLSGQERDGVALADQVKSIAWRARGATKKGTVAPEELQLIKAKINVLIG", "values": [
      {"measurement": "time after induction until full-length lpp mRNA disappears", "setting": "lpp mRNA", "result": "≤ 5", "unit": "min"},
      {"measurement": "time after induction until cellular protein synthesis is inhibited", "setting": "E. coli cells [8]", "result": "15 to 20", "unit": "min"}
    ]},
    {"molecule": "HipB (other, E. coli K12, UniProt P23873 1-88, looked up, also called HipB antitoxin) MMSFQKIYSPTQLANAMKLVRQQNGWTQSELAKKIGIKQATISNFENNPDNTTLTTFFKILQSLELSMTLCDAKNASPESTEQQNLEW", "values": [
      {"measurement": "binding result", "setting": "[9]", "result": "binds"}
    ]},
    {"molecule": "YdcD (other, B. subtilis, UniProt P96621 1-93, looked up, also called YdcD antitoxin) MSESSARTEMKISLPENLVAELDGVAMREKRSRNELISQAVRAYVSERTTRHNRDLMRRGYMEMAKINLNISSEAHFAECEAETTVERLVSGG", "values": [
      {"measurement": "binding result", "setting": "YdcE", "result": "binds"}
    ]}
  ]
}
